Experimental data: patent JP2024028198A (dated 2024)

Target: ヒトPAD4 (human, UniProt Q9UM07 1-663, limits assumed)
Test: cell-based or functional assay

Chain of ヒトPAD4 (Q9UM07 whole entry): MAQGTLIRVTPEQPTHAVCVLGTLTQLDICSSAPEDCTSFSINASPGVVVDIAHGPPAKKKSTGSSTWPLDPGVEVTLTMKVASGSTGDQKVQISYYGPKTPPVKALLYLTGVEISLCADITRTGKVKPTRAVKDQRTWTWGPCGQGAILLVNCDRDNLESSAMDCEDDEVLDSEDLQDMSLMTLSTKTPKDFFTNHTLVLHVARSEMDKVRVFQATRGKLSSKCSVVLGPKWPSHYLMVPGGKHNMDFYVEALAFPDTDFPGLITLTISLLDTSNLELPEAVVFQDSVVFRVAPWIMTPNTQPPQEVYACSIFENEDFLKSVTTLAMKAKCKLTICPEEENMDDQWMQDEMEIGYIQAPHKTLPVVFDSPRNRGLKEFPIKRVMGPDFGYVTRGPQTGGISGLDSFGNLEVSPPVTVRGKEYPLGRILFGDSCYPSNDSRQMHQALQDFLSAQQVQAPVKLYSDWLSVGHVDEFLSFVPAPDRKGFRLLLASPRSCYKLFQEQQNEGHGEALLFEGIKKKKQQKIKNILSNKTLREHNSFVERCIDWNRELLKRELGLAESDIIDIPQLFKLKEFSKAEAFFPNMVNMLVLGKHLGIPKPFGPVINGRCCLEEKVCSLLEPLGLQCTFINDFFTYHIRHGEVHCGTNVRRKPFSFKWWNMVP

Binder	ヒトPAD4酵素阻害活性 IC50 (BAEE citrullination, colorimetric)
抗PAD4抗体Lib2(4R)-1-47 (antibody, V domains shown) VH: EVQLLESGGGLVQPGGSLRLSCAASGFTFSTYAMGWVRQAPGKGLEFVAAIRNDGSWTGYGTPYKTRFTISRDNSKNTLYLQMNSLRAEDTAVYYCAKYTGSSGGSIGAWGQGTLVTVSS VL: SYELTQPPSVSVSPGQTARITCSGGNRNYYYGWYQQKPGQAPVTVIYANDKRPSGIPERFSGSNSGSTTTLTISGVQAEDEADYYCGTATTGKYVFGGGTKLTVLG	9.6 nM
抗PAD4抗体Lib1(6R)-2-37 (antibody, V domains shown) VH: EVQLLESGGGLVQPGGSLRLSCAASGFTFSTYAMGWVRQAPGKGLEFVAAIRNDGSWTGIGYNQKSRFTISRDNSKNTLYLQMNSLRAEDTAVYYCGKYTGSSGGSIGAWGQGTLVTVSS VL: SYELTQPPSVSVSPGQTARITCSGGNRNYYYGWYQQKPGQAPVTVIYANDKRPSGIPERFSGSNSGSTTTLTISGVQAEDEADYYCGTALTGKYVFGGGTKLTVLG	13.4 nM
ヒト化抗PAD4抗体G8 (antibody, human IgG1, lambda, V domains shown) VH: not shown VL: SYELTQPPSVSVSPGQTARITCSGGNRNYYYGWYQQKPGQAPVTVIYANDKRPSGIPERFSGSNSGSTTTLTISGVQAEDEADYYCGTADTGKYVFGGGTKLTVLG	21.6 nM
抗PAD4抗体2-1-47 (antibody, human IgG1, lambda, V domains shown) VH: EVQLLESGGGLVQPGGSLRLSCAASGFTFSTYAMGWVRQAPGKGLEFVAAIRNDGSWTGYGTPYKTRFTISRDNSKNTLYLQMSSLRAEDTAVYYCAKYTGSSGGSIGAWGQGTLVTVSS VL: SYELTQPPSVSVSPGQTARITCSGGNRNYYYGWYQQKPGQAPVTVIYANDKRPSGIPERFSGSNSGSTTTLTISGVQAEDEADYYCGTATTGKYVFGGGTKLTVLG	12.2 nM
ヒト化抗PAD4抗体G8ss (antibody, human IgG1, lambda, V domains shown) VH: not shown VL: SYELTQPPSVSVSPGQTARITCSGGNRNYYYGWYQQKPGQAPVTVIYANDKRPSGIPERFSGSNSGSTTTLTISGVQAEDEADYYCGTADTGKYVFGGGTKLTVLG	20.3 nM
抗PAD4抗体3-1-39 (antibody, human IgG1, lambda, V domains shown) VH: EVQLLESGGGLVQPGGSLRLSCAASGFTFSTYAMGWVRQAPGKGLEFVAAIRNDGSWTGTSVNAKTRFTISRDNSKNTLYLQMSSLRAEDTAVYYCAKYTGSSGGSIGAWGQGTLVTVSS VL: SYELTQPPSVSVSPGQTARITCSGGNRNYYYGWYQQKPGQAPVTVIYANDKRPSGIPERFSGSNSGSTTTLTISGVQAEDEADYYCGTATTGKYVFGGGTKLTVLG	8.8 nM
抗PAD4抗体Lib2(5R)-2-25 (antibody, V domains shown) VH: EVQLLESGGGLVQPGGSLRLSCAASGFTFSTYAMGWVRQAPGKGLEFVAAIRNDGSWTGYPPPLKGRFTISRDNSKNTLYLQMNSLRAEDTAVYYCAKYTGSSGGSIGAWGQGTLVTVSS VL: SYELTQPPSVSVSPGQTARITCSGGNRNYYYGWYQQKPGQAPVTVIYANDKRPSGIPERFSGSNSGSTTTLTISGVQAEDEADYYCGTAYTGKYVFGGGTKLTVLG	8.3 nM
抗PAD4抗体4-2-25 (antibody, human IgG1, lambda, V domains shown) VH: EVQLLESGGGLVQPGGSLRLSCAASGFTFSTYAMGWVRQAPGKGLEFVAAIRNDGSWTGYPPPLKGRFTISRDNSKNTLYLQMSSLRAEDTAVYYCAKYTGSSGGSIGAWGQGTLVTVSS VL: SYELTQPPSVSVSPGQTARITCSGGNRNYYYGWYQQKPGQAPVTVIYANDKRPSGIPERFSGSNSGSTTTLTISGVQAEDEADYYCGTAYTGKYVFGGGTKLTVLG	7.6 nM
抗PAD4抗体3-2-37 (antibody, human IgG1, lambda, V domains shown) VH: EVQLLESGGGLVQPGGSLRLSCAASGFTFSTYAMGWVRQAPGKGLEFVAAIRNDGSWTGIGYNQKSRFTISRDNSKNTLYLQMSSLRAEDTAVYYCGKYTGSSGGSIGAWGQGTLVTVSS VL: SYELTQPPSVSVSPGQTARITCSGGNRNYYYGWYQQKPGQAPVTVIYANDKRPSGIPERFSGSNSGSTTTLTISGVQAEDEADYYCGTALTGKYVFGGGTKLTVLG	15.3 nM
抗PAD4抗体Lib1(6R)-1-39 (antibody, V domains shown) VH: EVQLLESGGGLVQPGGSLRLSCAASGFTFSTYAMGWVRQAPGKGLEFVAAIRNDGSWTGTSVNAKTRFTISRDNSKNTLYLQMNSLRAEDTAVYYCAKYTGSSGGSIGAWGQGTLVTVSS VL: SYELTQPPSVSVSPGQTARITCSGGNRNYYYGWYQQKPGQAPVTVIYANDKRPSGIPERFSGSNSGSTTTLTISGVQAEDEADYYCGTATTGKYVFGGGTKLTVLG	8.7 nM
